Test results reported in doi:10.1101/2022.08.14.503930 (bioRxiv, 2022).

Biological target: T1, GFP-TBK1 (UniProt Q9UHD2 1-729)
T1 construct: TBK1, insect codon optimized gene from GenScript; source: Sf9, purified (Glutathione Sepharose, TEV cleavage, Superdex 200)
Assay: microscopy-based bead protein-protein interaction assay; GST-4xUb (10 uM) on Glutathione Sepharose beads with OPTN S177D S473D 500 nM, GFP-TBK1 500 nM and PI3Kc1-mCh 200 nM; 25 mM TRIS-Cl pH 7.5, 150 mM NaCl, 1 mM DTT; 30 min, confocal
Conditions: both partners purified

binding result: binds
B1: OPTN S2D (S177D, S473D) (natural protein, UniProt Q96CV9 1-577, looked up)
chain: MSHQPLSCLTEKEDSPSESTGNGPPHLAHPNLDTFTPEELLQQMKELLTENHQLKEAMKLNNQAMKGRFEELSAWTEKQKEERQFFEIQSKEAKERLMALSHENEKLKEELGKLKGKSERSSEDPTDDSRLPRAEAEQEKDQLRTQVVRLQAEKADLLGIVSELQLKLNSSGSSEDDFVEIRMAEGEAEGSVKEIKHSPGPTRTVSTGTALSKYRSRSADGAKNYFEHEELTVSQLLLCLREGNQKVERLEVALKEAKERVSDFEKKTSNRSEIETQTEGSTEKENDEEKGPETVGSEVEALNLQVTSLFKELQEAHTKLSEAELMKKRLQEKCQALERKNSAIPSELNEKQELVYTNKKLELQVESMLSEIKMEQAKTEDEKSKLTVLQMTHNKLLQEHNNALKTIEELTRKESEKVDRAVLKELSEKLELAEKALASKQLQMDEMKQTIAKQEEDLETMTILRAQMEVYCDDFHAERAAREKIHEEKEQLALQLAVLLKENDAFEDGGRQSLMEMQSRHGARTSDSDQQAYLVQRGAEDRDWRQQRNIPIHSCPKCGEVLPDIDTLQIHVMDCII
notes: optineurin (OPTN), TBK1 phospho-mimetic form; pGST2-GST-TEV-OPTN(S177D S473D), derived from vectors of Chang et al., 2021; also called OPTN S177D S473D; phosphomimetic OPTN S2D; source: E. coli Rosetta pLySS, purified (Glutathione Sepharose, TEV cleavage, Superdex 200); not shown: GST, N-terminal, cleaved
